Measured values: the DeepSol protein solubility set

Assay: soluble on expression in E. coli; label from the status in PepcDB or PDB records

Soluble on expression in E. coli, soluble:
MSLEALKEVAGEAEGEKSAVITHRNADPDAVGAALVVREVLRALRMNPCLYSPEGISRQSKRLLEAVGEEFGPLCSPDENPLIAVVVDAANLSQIAGAESLFRAARLKVVIDHHERGSIHEEADVALVDPGAGSSSELAVKTAVEAGTPLRPSVATAALGGIVYDTGRFLRASKLSFEAAAHLLSMGADYGKVLEAGRQRGRRDRGDLSLRLAKLKAFSRLKIGRACSELLIAVTHIGSFESDVAKSLVDEAADVAVAVAERTSEFRLSVRVSPLALEKGVTARAIASMLAEKFGGEGGGHDEAGMAHIPYTAAFSAEDMAVKAFNLISGRLGWMCVKTLEKGEGGSHHHHHH, MSLEEILIIDDSRQIADFLAETVLPYYGYRSRVVPTGWEGLAFLKQRQPDLILLDLQLPDTSGLDVLRQMGELGYDIPVILMTAHGTEQTAVEAFRLGAKNYLIKPFDASEAGAAIERALRERRLQREKEVLTRTLQQRLQELTILSSVGKSVTSLLDLEELLERIVDAGVYLTHAEEGYLLLRDGDELYLRAAKNLGEERVQRFRVKMDDNVAGQVIRTVKPIRLDRSQHQDLKLRTGLLVQAMLQVPLIVGRHAIGVLAVDNRVQQRTFSENDQYLLSAIADYAAIAIENSREGHHHHHH, MSLEFLMKKVVFALSALAVVSTSAFAAESGDGTIKFTGEIVDAPCVVSTDSQNQEVVLGQVKKNIFKAIGDKSSSKPFQIKLEDCDITSNTKVNVSFNGVGDTDDATLVSVNTEAGAATGVGIGIYDNANKLVEMNTGKSTTTLAAGQTVLYYTANYVATKDTVTTGYGNAEVDFNLSYEEGGSHHHHHH, MSLEHQLANVYETKIRRNEHPTIPRPLVTFEPAAIRSKPSSPISELEVFTSEQLIKVTSSIRWKTLSSAVLGAGFKWHQTFVNRHVSKDYYCDDVEREFQTFLSNVGVDGTDALGMMTAAILEDVAITEATYESFKVRVFVTAGISNAVDAAKAHLRKRNEATVGTINTWVFIEGTLPDAAYVQALMTATEAKGRALAEKEILDPVTGTLATGTSTDSVMIASSQTGTYFPYAGTITPLGQAIGKLVYDATIQAVTDNEKRRLEREGHHHHHH, MSLEKEAFMEKLLSFMKEEAYKPLTVQELEEMLNITEAEEFKELVKALVALEEKGLIVRTRSDRYGIPEKMNLIKGKISAHAKGFAFLLPEDTSLSDVFIPPNELNTAMNGDIVMVRLNSQSSGSRQEGTVIRILERAIQRVVGTYTETRNFGFVIPDDKKITSDIFIPKNGKNGAAEGHKVVVKLTSYPEGRMNAEGEVETILGHKNDPGIDILSVIHKHGLPGEFPADAMEQASSTPDTIDEKDLKDRRDLRDQVIVTIDGADAKDLDDAVTVTKLDDGSYKLGVHIADVSHYVTENSPIDKEALERGTSVYLVDRVIPMIPHRLSNGICSLNPKVDRLTLSCEMTINSQGQVTEHEIFQSVIKTTERMTYSDVNKILVDDDEELKQKYEPLVPMFKDMERLAQILRDKRMDRGAVDFDFKEAKVLVDDEGAVKDVVIRERSVAEKLIEEFMLVANETVAEHFHWMNVPFIYRIHEEPNAEKLQKFLEFVTTFGYVVKGTAGNIHPRALQSILDAVRDRPEETVISTVMLRSMKQAKYDPQSLGHFGLSTEFYTHFTSPIRRYPDLIVHRLIRTYLINGKVDEATQEKWAERLPDIAEHTSSMERRAVDAERETDDLKKAEYMLDKIGEEFDGMISSVTNFGMFVELPNTIEGLVHVSFMTDDYYRFDEQHFAMIGERTGNVFRIGDEITVKVVDVNKDERNIDFEIVGMKGTPRRPRELDSSRSRKRGKPARKRVQSTNTPVSPAPSEEKGEWFTKPKKKKKKRGFQNAPKQKRKKKKEGHHHHHH
